Source: article PMC11373591

Columns and labels:
[1] = target: HLA.A2-H12 / beta-2-microglobulin refolded with the 9V NY-ESO-1 peptide (A2/9V)
[2] = target: HLA.A2-H12 / beta-2-microglobulin refolded with the 9V NY-ESO-1 peptide (A2/9V); remark: listed apart in the source
[3] = target: CD8 binding–deficient HLA.A2 (DT227/228KA) refolded with the 9V NY-ESO-1 peptide (A2^ΔCD8/9V)

| Substance | specific lysis of HLA.A2-expressing K562 cells pulsed with 0.1 nM 9V peptide after 6, 8 and 24 hours of coculture at 1:1 (luciferase); 1G4 by CRISPR-Cas9 [1] [% killing] | EC50: antigen density on the SLB at half-maximum T cell activation (Fura-2 calcium response); receptor by CRISPR-Cas9 knock-in (antigen molecules per μm^2) [2] | EC50: antigen density on the SLB at half-maximum T cell activation (Fura-2 calcium response); receptor by CRISPR-Cas9 knock-in (antigen molecules per μm^2) [3] |
| --- | --- | --- | --- |
| 1G4 TCR | 65 | 0.00703 | 0.0181 |
| c58c61 1G4hi TCR | – | 0.04 | 0.0736 |
